{
  "source": "the nanobody polyreactivity screen of Harvey et al. (2022)",
  "data": [
    {"assay": "yeast display, Sf9 membrane polyspecificity reagent, FACS + sequencing; frameworks hold sequencing errors", "procedure,_shortened": "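Galactose-induced (36–48 hours) yeast carrying a synthetic nanobody display library were exposed to 10% biotinylated, detergent-solubilized Sf9 membrane reagent at 4 °C for 1 hour. FACS followed streptavidin microbead enrichment, using low and high (top ~1%) gates for expression (anti-HA) and reagent binding (streptavidin). Colony PCR, MiSeq 2 × 250 sequencing and CDR-length filtering followed. Labels for polyreactivity reflect the gate of origin.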", "values": [
      {"sequence": "QVQLVESGGGLVQAGGSLRLSCAASGSIFHTYAMGWYIQAPGKERELVAAITVSGGDTYYADSVKGRFTISRDNEKNNVYLQMNSLKPEDTAVYYCAVDTTTSYTVAYDYWGQGTQVSVSS", "polyreactivity (PSR sort gate)": "low polyreactivity"},
      {"sequence": "QVQLVESGGGLVQAGGSLRLSCAASGSIFHVNAMGWYRQAPGKERELVAGISDGGSTYYADSVKGRFTISRDNAKNTVYLQMNSLKPEDTAVYYCAAESEQWYSYVLSYDWEYDYWGQGTQVTVSS", "polyreactivity (PSR sort gate)": "low polyreactivity"},
      {"sequence": "QVQLVESGGGLVQAGGSLRLSCAASGSIFHVNARGRYRQAPGKERELVAGISDGGSTYYADSVKGRFTISRDNAKNTVYLQMNSLKPEDTGVYYCAAESEQWYSYVLSYDWEYDYWGQGTQVTVSS", "polyreactivity (PSR sort gate)": "low polyreactivity"},
      {"sequence": "QVQLVESGGGLVQAGGSLRLSCAASGSIFHYNAMGWYRQAPGKEREFVAVISKSSGSTFYADSVKGRLTISRDNAKNTVYLQMNSLKPEDTAVYYCNRVTKRYRKIGNYWGQGTQVTVSS", "polyreactivity (PSR sort gate)": "high polyreactivity"},
      {"sequence": "QVQLVESGGGLVQAGGSLRLSCAASGSIFHYNAMGWYRQAPGKERELVARISVNGGRTYYADSVKGRFTISRDNAKNTVYLQMNSLKPEDTAVYYCAVEGVWRSFFYGYDSWGQGTQVTVSS", "polyreactivity (PSR sort gate)": "low polyreactivity"},
      {"sequence": "QVQLVESGGGLVQAGGSLRLSCAASGSIFHYYGMGWYRQAPGKERELVAAISRGGSTNYADSVKGRFTISRDNAKNTVYLQMNSLKPEDTAVYYCNARTYRKAYSGYNYWGQGTQVTVSS", "polyreactivity (PSR sort gate)": "high polyreactivity"},
      {"sequence": "QVQLVESGGGLVQAGGSLRLSCAASGSIFIAYGMGWYRQEPGKERELVAAITVSGGNTYYADSVKGRFTISRDNAKNTVYLQMKSLKPEDTAVYYCAADYWYYYGKGLYDYWGQGTQVTVSS", "polyreactivity (PSR sort gate)": "low polyreactivity"},
      {"sequence": "QVQLVESGGGLVQAGGSLRLSCAASGSIFIAYGMGWYRQEPGKERELVAAITVSGGNTYYADSVKGRFTISRDNAKNTVYLQMNSLKPEDNAVYYCADVTYWQDGHRGNYWGQGTQVTVSS", "polyreactivity (PSR sort gate)": "low polyreactivity"},
      {"sequence": "QVQLVESGGGLVQAGGSLRLSCAASGSIFIFNAMGWYRQAPGKEREFVARIRRDSSTYYADSVKGRFTISRDNAKNTVYLLMNSLKPEDTAVYYCAAKRVYRRVELNSWGQGTQVTVSS", "polyreactivity (PSR sort gate)": "low polyreactivity"},
      {"sequence": "QVQLVESGGGLVQAGGSLRLSCAASGSIFIGYAMGWYRQAPGKERELVAAIDSNGDTTYYADSVKGRFTISRDNAKNTVYLQMNSLKPEDTAVYYCAVDPYHDQLVSDHYYWGQGTQVTVSS", "polyreactivity (PSR sort gate)": "low polyreactivity"},
      {"sequence": "QVQLVESGGGLVQAGGSLRLSCAASGSIFIGYAMGWYRQAPGKERELVAAISNSGGRTYYADSVKGRFTISRDNAKNTVYLQMNSLKPEDTAVYYCAAEERYAYRYDYSGQGTQVTVSS", "polyreactivity (PSR sort gate)": "high polyreactivity"},
      {"sequence": "QVQLVESGGGLVQAGGSLRLSCAASGSIFIINAMGWYRQAPGKERELVAAINNGVNTYYADSVKGRFTISRDNAKNTVYLQMNSLKPEDTAVYYCAADPYFYYYGYDYWGQGTQVTVSS", "polyreactivity (PSR sort gate)": "low polyreactivity"},
      {"sequence": "QVQLVESGGGLVQAGGSLRLSCAASGSIFIIYAMGWYRQAPGKERELVAAINTSGTSTYYADSVKGRFTISRDNAKNTVYLQMNSLKPEDTAVYYCAAAGRRSYKYYFWGQGTQVTVSS", "polyreactivity (PSR sort gate)": "high polyreactivity"},
      {"sequence": "QVQLVESGGGLVQAGGSLRLSCAASGSIFIIYAMGWYRQAPGKERELVASITGRGDSTYYADSVKGRFTISRDNAKNTVYLQMNSLKPEDTAVYYCNAGVYVYRVPGKGYYWGQGTQVTVSS", "polyreactivity (PSR sort gate)": "low polyreactivity"},
      {"sequence": "QVQLVESGGGLVQAGGSLRLSCAASGSIFIQYAMGWYRQAPGKERELVAAINTSGGRTYYADSVKGRFTISRDNAKNTVYLLMNSLKPEDTAVYYCNADHFGWPWRVRILEDDYWGQGTQVTVSS", "polyreactivity (PSR sort gate)": "low polyreactivity"},
      {"sequence": "QVQLVESGGGLVQAGGSLRLSCAASGSIFIRYTLGWYRQAPGKERELVAVISRRGGSTYYADSVKGRFTISRDNAKNTVYLQMNSLNPEDTAVYYCNTTSSVRAPGSGVYYVPGFDYWGQGTQVTVSS", "polyreactivity (PSR sort gate)": "high polyreactivity"},
      {"sequence": "QVQLVESGGGLVQAGGSLRLSCAASGSIFISYAMGWYRQAPGTERELVAAITWSGDSTYYADSVKGRFTISRDNAKNTVYLQMNSLKPEDTAVYYCAADWYFRNQRGYYWGQGTQVTVSS", "polyreactivity (PSR sort gate)": "low polyreactivity"},
      {"sequence": "QVQLVESGGGLVQAGGSLRLSCAASGSIFITYAMGWYRQAPGKEMELVAAIRDSGDRTYYADSVKGRFTISRDNAKNTVYLQMNSLKPVDTAVYYCNARWEEPLKYDYWGQGTQVTVSS", "polyreactivity (PSR sort gate)": "low polyreactivity"},
      {"sequence": "QVQLVESGGGLVQAGGSLRLSCAASGSIFITYAMGWYRQAPGKERELVAAIRDSGDRTYYADSVKGRFTISRDNAQNTVYLQMNSLKPEDTAVYHCNARWQEPLKYDYWGQGTQVTVSS", "polyreactivity (PSR sort gate)": "low polyreactivity"},
      {"sequence": "QVQLVESGGGLVQAGGSLRLSCAASGSIFIVYARGWYRPAPGRERELVATITSGGSTNYADSVKGRFTISRDNAKKTVYLQMNSLKPEDTAVYYCAKDLYYGDYYYWGLGTQVTVSS", "polyreactivity (PSR sort gate)": "low polyreactivity"},
      {"sequence": "QVQLVESGGGLVQAGGSLRLSCAASGSIFIWYAMAWYRQAPWKERELVAAIRSGGSTYYADSVKGRFTISRDNAKNTVYLQMNSLKPEDTAVYYCAKVLTWRGYRYNYWGQGTQVTVSS", "polyreactivity (PSR sort gate)": "low polyreactivity"},
      {"sequence": "QVQLVESGGGLVQAGGSLRLSCAASGSIFIYAMGWYRQAPGKERELVATISWSGTSTYSDSVKGRFTISRDNAKNTVYLQMNSLKPEDTAVYYCNKLKRTYYSSGYPHDYWGQGTQVTVSS", "polyreactivity (PSR sort gate)": "low polyreactivity"},
      {"sequence": "QVQLVESGGGLVQAGGSLRLSCAASGSIFIYNAMGWYRQAPGKERELVAAINWTGGSTYYADSVKGRFTISRDNAKNTVYLQMNSLKPEDTAVYYCNALRYGSTRGYDYWGQGTQVTVSS", "polyreactivity (PSR sort gate)": "high polyreactivity"},
      {"sequence": "QVQLVESGGGLVQAGGSLRLSCAASGSIFIYNAMGWYRQAPGKERELVAAITWSGGRTYYADSVKGRFTISRDNAKNSVYLQMNSLKPEDTAVYYCNAVWTDAYYSYGYDYWGQGTQVTVSS", "polyreactivity (PSR sort gate)": "low polyreactivity"},
      {"sequence": "QVQLVESGGGLVQAGGSLRLSCAASGSIFIYYAMGGYRQEPGKERELVAAINTGGTTYYADSVKGRFTISRYNAKNTVYLQMNSLNPEDTAVYYCAKYIAYYGYVPSPWDHPGDDYWGQGTQVTVSS", "polyreactivity (PSR sort gate)": "low polyreactivity"},
      {"sequence": "QVQLVESGGGLVQAGGSLRLSCAASGSIFIYYAMGWYRQAPGKEREFVAAISTSTADTYYADSVKGRFTISRDNAKNTVYLQMNSLKPEDTAVYYCAAECRPKWYYWAEGYYWGQGTQVTVSS", "polyreactivity (PSR sort gate)": "high polyreactivity"},
      {"sequence": "QVQLVESGGGLVQAGGSLRLSCAASGSIFIYYAMGWYRQAPGKERELVADITFSAGSNTYYADSVKGRFTISRDNAKNTVYLQMNSLKPEDTAVYYCNADRGFIGSITEYDYWGQGTQVTVSS", "polyreactivity (PSR sort gate)": "low polyreactivity"},
      {"sequence": "QVQLVESGGGLVQAGGSLRLSCAASGSIFKAHTMGWYRQAPGKERELVAAISGSGGRTRYADSVKGRFTISRDNAKITVYLQMNSLKPDVTAVYYCAASDRGGYYYWGQGTQVTVSS", "polyreactivity (PSR sort gate)": "high polyreactivity"},
      {"sequence": "QVQLVESGGGLVQAGGSLRLSCAASGSIFKFNAMGWYRQAPGKERELDASITWTGTSTHYADSVKGRFTISRDNAKNTVFLQMNSLKPEDTAVYYCATYLYLWYEKGYTYDYWGQGTQVTVSS", "polyreactivity (PSR sort gate)": "high polyreactivity"},
      {"sequence": "QVQLVESGGGLVQAGGSLRLSCAASGSIFKFNTMGWYRQAPGNERELVAAITRVGSTYYADSVKGRFTISRDNAKNTVYLQMNSLKPEDTAVYYCAVRQRDKFAGGRNDYWGQGTQVTVSS", "polyreactivity (PSR sort gate)": "high polyreactivity"},
      {"sequence": "QVQLVESGGGLVQAGGSLRLSCAASGSIFKFYAMGWYRQAPGKERELVAAINYNDINTYYADSVKGRFTISRDNAKNTVYLQMNRLKPEDTAVYYCNAELNVQYLYGYTGEYDYWGQGTQVTVSS", "polyreactivity (PSR sort gate)": "low polyreactivity"},
      {"sequence": "QVQLVESGGGLVQAGGSLRLSCAASGSIFKGYSMGWYRQAPGKERELVAAITIDGSTYYADSVKGRFTISRDNAKNTVYLQMNSLKPEDTAVYYCAAVYLWYGSWPLHFAAYDYWGQGTQVTVSS", "polyreactivity (PSR sort gate)": "low polyreactivity"},
      {"sequence": "QVQLVESGGGLVQAGGSLRLSCAASGSIFKGYTMGWYRQAPGKEREFVASISRRGGSTYYADSVKGRFTISRDNAKNTVYLQMNSLKPDDTAVYYCAKDYGKAYDYWGQGTQVTVSS", "polyreactivity (PSR sort gate)": "high polyreactivity"},
      {"sequence": "QVQLVESGGGLVQAGGSLRLSCAASGSIFKINAMGWYRQAPGKERELVAAITRSGGSTYYADSVKGRFTISRDNAKNTVYLQMNSLKPEDTAVYYCNASTSRRTSLSSRFYYWGQGTQVTVSS", "polyreactivity (PSR sort gate)": "high polyreactivity"},
      {"sequence": "QVQLVESGGGLVQAGGSLRLSCAASGSIFKINAMGWYRQAPGKERELVATITWSTGTTYYADSVKGRFTISRDNAKNTVYLQMNSLKPEDTAVYYCATDGDSTKLDYWGQGTQVTVSS", "polyreactivity (PSR sort gate)": "low polyreactivity"},
      {"sequence": "QVQLVESGGGLVQAGGSLRLSCAASGSIFKIYAMGWDRQAPGKERELVASITGSGGSTYYADSVKGRFTISRDNAKNTVYLQMNSLKPEDPAVYYCAVEAWSVPPYDYWGQGTQVTVSS", "polyreactivity (PSR sort gate)": "low polyreactivity"},
      {"sequence": "QVQLVESGGGLVQAGGSLRLSCAASGSIFKLNAMGWYRQAPGKERELVAAISRGGRTYYADSVKGRFTISRDNAKNTVYLQMNSLKPEDTAVYYCAADASSQIWYYPRDDYWGQGTLVTVSS", "polyreactivity (PSR sort gate)": "low polyreactivity"},
      {"sequence": "QVQLVESGGGLVQAGGSLRLSCAASGSIFKNYAMGWYRQAPGKERELVAAITSGGRTYYADSVKGRFTISRDNAKNTVYLQMNSLKPEDTAVYYCAALGRYGYYYWGQGTQVTVSS", "polyreactivity (PSR sort gate)": "high polyreactivity"},
      {"sequence": "QVQLVESGGGLVQAGGSLRLSCAASGSIFKNYAMGWYRQAPGKERELVATISSGDSTYYADSVKGRFTISRDNAKNTVYLQMNSLKPEDTAVYYCNTTEHNYVSSFEYGYWGQGTHVTVSS", "polyreactivity (PSR sort gate)": "low polyreactivity"},
      {"sequence": "QVQLVESGGGLVQAGGSLRLSCAASGSIFKPYSMGWYRQAPGKERELVAAISTRRSSTYYADSVKGRFTFSRDNAKNTVYLQMNSLIQEDTAVYYCAKRRYLWGYEYDSWGQGTQVNVSS", "polyreactivity (PSR sort gate)": "high polyreactivity"}
    ]}
  ]
}
